Data set [1] concerns endothelial cell monolayers (in vitro blood-brain barrier model).
Procedure: (§1) The permeability coefficient (Pe) was calculated as:
(§2) At the end of the experiments, amounts of the radiotracers in the basolateral compartment were measured in a liquid scintillation counter. The permeability coefficient (Pe) for sucrose was calculated as previously described (Dehouck, M. P., Jolliet-Riant, P., Brée, F., Fruchart, J. C., Cecchelli, R., Tillement, J. P., J. Neurochem. 58:1790-1797, 1992) using filters coated or non-coated with EC.
(§3) The transport of Angio-pep1 from the apical-to-basolateral side of inserts covered with or without endothelial cell monolayers was measured. The results are expressed as the clearance of Angio-pep1 as a function of time. The slopes correspond to the permeability of the peptide through the filter alone (Psf) and to the total permeability of the endothelial cell monolayers (Pst).
(§4) The permeability coefficients for Angio-pep1, aprotinin, leptin and transferrin were determined using the in vitro blood-brain barrier model. The permeability coefficient (Pe) was calculated as described above.
Data set [2] concerns bovine brain capillary endothelial cells (BBCECs).
Procedure: (§5) The model consists of a co-culture of bovine brain capillary endothelial cells and rat glial cells.
(§6) The in vitro model of BBB was established by using a co-culture of BBCECs and astrocytes. Prior to cell culture, plate inserts (Millicell-PC 3.0 μM; 30-mm diameter) were coated on the upper side with rat tail collagen. They were then set in six-well microplates containing the astrocytes and BBCECs were plated on the upper side of the filters in 2 mL of co-culture medium. This BBCEC medium was changed three times a week. Under these conditions, differentiated BBCECs formed a confluent monolayer 7 days later. Experiments were performed between 5 and 7 days after confluence was reached. The permeability coefficient for sucrose was measured to verify the endothelial permeability.
(§7) Briefly, after removing the meninges, the brain tissue was forced gently through a 82 μm nylon sieve. Astrocytes were plated on six-well microplates at a concentration of 1.2×10^5 cells/mL in 2 mL of optimal culture medium (DMEM) supplemented with 10% heat inactivated fetal bovine serum. The medium was changed twice a week.
(§8) Bovine brain capillary endothelial cells (BBCECs) were obtained from Cellial Technologies. The cells were cultured in the presence of DMEM medium supplemented with 10% (v/v) horse serum and 10% heat-inactivated calf serum, 2 mM of glutamine, 50 μg/mL of gentamycin, and 1 ng/mL of basic fibroblast growth factor, added every other day.
(§9) One insert covered with BBCECs was set into a six-well microplate with 2 mL of Ringer-Hepes and was pre-incubated for 2 h at 37° C. [^125I]-aprotinin, [^125I]-p97, [^125I]-ceruloplasmin or [^125I]-transferrin (250 nM final concentration) was added to the upper side of the filter covered with cells. At various times, the insert was transferred to another well to avoid a possible reendocytosis of [^125I]-proteins by the abluminal side of the BBCECs. At the end of experiment, [^125I]-proteins were assessed in 500 μL of the lower chamber of well by TCA precipitation.
(§10) Aprotinin, p97 and bovine holo-transferrin were iodinated with standard procedures using iodo-beads from Sigma™. Bovine holo-transferrin was diluted in 0.1M phosphate buffer, pH 6.5 (PB). P97 obtained from Synapse Technologies in neutralized citrate at pH 7.0 was dialyzed against this PB. Two iodo-beads were used for each protein. These beads were washed twice with 3 mL of PB on a Whatman™ filter and resuspended in 60 μL of PB. ^125I (1 mCi) from Amersham-Pharmacia biotech was added to the bead suspension for 5 minutes at room temperature. The iodination for each protein was initiated by the addition of 100 μg (80-100 μL).
The nature of data set [3]: in vitro. To be noted: bovine.
Procedure: as §1, §2, §3, §4
Data set [4] concerns endothelial cell monolayers (in vitro blood-brain barrier model). In words: Permeability coefficient (Pe) of proteins in the in vitro blood-brain barrier model. To be noted: for Ratios (permeability coefficients): Pe of Angio-pep1 divided by Pe of the named protein; for Permeability coefficient (Pe): in vitro blood-brain barrier model.
Procedure: as §1, §2, §3, §4
Data set [5] concerns bovine brain capillary endothelial cells (BBCECs). Description: Transcytosis of 125I-proteins across BBCEC monolayers (in vitro blood-brain barrier model). To be noted: for Transcytosis: across in vitro BBB model; for Ratios Aprotinin/Protein: aprotinin transcytosis divided by that of the named protein.
Procedure: as §5, §6, §7, §8, §9, §10
Data set [6] deals with BBCEC monolayers. Description: SDS-PAGE/autoradiography of protein integrity after transcytosis across BBCEC monolayers. In kind it is in vitro ADME, bovine. To be noted: 250 nM, SDS-PAGE, FIG. 4. From the text:
At each time point, filters were put in the next well of the 6-well plates. At the end of the experiment, aliquots were taken in each well and submitted to SDS-PAGE. Gels were then submitted to detection by autoradiography. The results, presented in FIG. 4, indicate that aprotinin integrity is not affected by its transcytosis across BBCEC monolayers.

For data set [7], the system named is mouse brain. In words: In situ mouse brain perfusion (apparent volume of distribution). To be noted: 10 min perfusion.
Procedure: The uptake of [^125I]-aprotinin to the luminal side of mouse brain capillaries was measured using the in situ brain perfusion method adapted in our laboratory for the study of drug uptake in the mouse brain (Dagenais et al., 2000, J. Cereb. Blood Flow Metab. 20(2):381-386). Briefly, the right common carotid of ketamine/xylazine (140/8 mg/kg i.p.) anesthetized mice was exposed and ligated at the level of the bifurcation of the common carotid, rostral to the occipital artery. The common carotid was then catheterized rostrally with polyethylene tubing (0.30 mm i.d.×0.70 mm o.d.) filled with heparin (25 U/ml) and mounted on a 26-gauge needle. The syringe containing the perfusion fluid (10 nM of [^125I]-aprotinin in Krebs/bicarbonate buffer at a pH7.4 gassed with 95% O2 and 5% CO2) was placed in an infusion pump (Harvard pump PHD 2000; Harvard Apparatus) and connected to the catheter. […]
Aprotinin uptake was expressed as the volume of distribution (Vd) from the following equation: Vd=Q*br/C*pf where Q*br is the calculated quantity of [^125I]-aprotinin per gram of right brain hemisphere and C*pf is the labeled tracer concentration measured in the perfusate.
The brain apparent volume of distribution was measured for [^125I]-transferrin, [^125I]-aprotinin and [^125I]-Angio-pep1. […]

This is an account of results in patent publication US9221867B2, “Method for transporting a compound across the blood-brain barrier” (Angiochem Inc., priority 2003, dated 2015).

In general, Papp A→B refers to how fast a substance crosses the layer from the apical side. Low readings indicate slow passage, high ones fast passage.

“Also recorded” adds a separate entry of the source. Like-named read-outs stand apart in the source and are kept apart here. Where a SMILES comes first, the peptide text is derived from it.

For `C[C@@H](O)[C@H](N)C(=O)N[C@@H](Cc1ccccc1)C(=O)N[C@@H](Cc1ccccc1)C(=O)N[C@@H](Cc1ccc(O)cc1)C(=O)NCC(=O)NCC(=O)N[C@@H](CS)C(=O)N[C@@H](CCCNC(=N)N)C(=O)NCC(=O)N[C@@H](CCCCN)C(=O)N[C@@H](CCCNC(=N)N)C(=O)N[C@@H](CC(N)=O)C(=O)N[C@@H](CC(N)=O)C(=O)N[C@@H](Cc1ccccc1)C(=O)N[C@@H](CCCCN)C(=O)N[C@H](C(=O)N[C@@H](CCC(=O)O)C(=O)N[C@@H](CCC(=O)O)C(=O)N[C@@H](Cc1ccc(O)cc1)C(=O)O)[C@@H](C)O` [Angio-pep1] (H-TFFYGGCRGKRNNFKTEEY-OH; N-terminus and C-terminus assumed), the “Ratios (permeability coefficients)” value in data set [1] is 1. Also, the “Permeability coefficient (Pe)” value in data set [1] (bovine) worked out at 20 ×10⁻⁶ cm/s. The “transcytosis capacity compared with other proteins” value in data set [2] is “higher than that of other proteins including aprotinin, leptin and transferrin”. The compound also had a Papp A→B in data set [3] of 20 ×10⁻⁶ cm/s.
For the compound “Leptin: comparison protein for permeability coefficient [reference compound]”, in data set [4], the “Ratios (permeability coefficients)” value came out at 21 and the “Permeability coefficient (Pe)” value worked out at 0.917 ×10⁻⁶ cm/s.
Regarding “Streptavidin: comparison protein in transcytosis experiment [reference compound]”, in data set [5], the Transcytosis is listed as 0.09 pmol/h/cm^2 and the “Ratios Aprotinin/Protein” value turned out to be 30.
As for aprotinin, the “integrity of the protein after transcytosis across BBCEC monolayers” value in data set [6] is “not affected”. For the same compound, the “brain uptake / apparent volume of distribution” value in data set [7] is given as “higher brain uptake; also recorded: higher than that of transferrin”. Further, in data set [4], the “Ratios (permeability coefficients)” value came to 7.5 and the “Permeability coefficient (Pe)” value came out at 2.67 ×10⁻⁶ cm/s. Moreover, in data set [5], the Transcytosis is listed as 2.7 pmol/h/cm^2 and the “Ratios Aprotinin/Protein” value came to 1. Also, in data set [5] (in vitro blood-brain barrier model), the “transcytosis capacity compared with other proteins” value was “higher transcytosis capacity than transferrin, p97 or ceruloplasmin”. Besides, the “transendothelial transport / transcytosis of aprotinin higher than that of other proteins” value in data set [5] (versus other tested proteins incl. transferrin, ceruloplasmin) is 10-50 fold.
